This note sets out measurements from PMC4731217, “Mutations in Mtr4 Structural Domains Reveal Their Important Role in Regulating tRNAiMet Turnover in Saccharomyces cerevisiae and Mtr4p Enzymatic Activities In Vitro”.

One data set concerns the target T1, Mtr4p-P731S (Saccharomyces cerevisiae, UniProt P47047 1-1073, P731S).
T1 sequence: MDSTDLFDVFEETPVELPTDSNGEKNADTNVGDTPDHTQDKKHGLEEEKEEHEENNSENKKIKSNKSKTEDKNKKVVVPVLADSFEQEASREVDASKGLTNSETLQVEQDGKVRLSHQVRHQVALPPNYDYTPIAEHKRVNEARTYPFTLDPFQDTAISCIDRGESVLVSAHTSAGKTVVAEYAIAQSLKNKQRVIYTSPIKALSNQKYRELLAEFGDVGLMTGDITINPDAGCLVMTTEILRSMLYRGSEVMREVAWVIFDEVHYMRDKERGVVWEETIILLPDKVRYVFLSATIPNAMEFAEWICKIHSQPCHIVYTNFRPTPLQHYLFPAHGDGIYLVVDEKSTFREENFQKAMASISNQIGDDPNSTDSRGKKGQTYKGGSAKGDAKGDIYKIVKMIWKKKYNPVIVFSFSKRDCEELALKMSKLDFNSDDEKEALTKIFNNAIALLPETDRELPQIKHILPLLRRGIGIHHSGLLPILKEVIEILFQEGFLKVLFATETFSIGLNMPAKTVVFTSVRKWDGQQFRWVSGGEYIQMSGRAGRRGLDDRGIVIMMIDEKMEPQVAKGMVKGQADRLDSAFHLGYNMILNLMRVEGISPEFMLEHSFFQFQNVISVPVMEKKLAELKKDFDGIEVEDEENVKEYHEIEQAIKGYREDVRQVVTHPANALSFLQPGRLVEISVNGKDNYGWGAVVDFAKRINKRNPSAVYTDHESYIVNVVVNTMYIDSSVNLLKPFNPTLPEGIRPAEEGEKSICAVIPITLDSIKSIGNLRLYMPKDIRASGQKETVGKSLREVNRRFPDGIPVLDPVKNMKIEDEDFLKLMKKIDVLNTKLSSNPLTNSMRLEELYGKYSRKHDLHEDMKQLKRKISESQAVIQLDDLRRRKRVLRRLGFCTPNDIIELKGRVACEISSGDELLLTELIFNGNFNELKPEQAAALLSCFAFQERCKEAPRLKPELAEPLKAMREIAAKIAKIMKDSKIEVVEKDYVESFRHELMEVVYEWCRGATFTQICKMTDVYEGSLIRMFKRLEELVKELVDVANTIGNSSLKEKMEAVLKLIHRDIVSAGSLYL
The data set can be described thus: EMSA; no ATP or Mg2+ listed; 1 mM EDTA; EMSA: 0.5 nM RNA, 10 mM Tris pH 7.5, 1 mM EDTA, 100 mM KCl, 0.1 mM DTT, 5% glycerol, 1% NP40, on ice 30 min; 5% native PAGE at 4 C. As to conditions: protein: recombinant; tags: His (His60 Ni purification); label: 5' 32P on R4 (top strand); 16 bp duplex, 3' overhang 6 nt on R1.

The next data set concerns the target T2, Mtr4p-K700N (Saccharomyces cerevisiae, UniProt P47047 1-1073, K700N).
T2 sequence: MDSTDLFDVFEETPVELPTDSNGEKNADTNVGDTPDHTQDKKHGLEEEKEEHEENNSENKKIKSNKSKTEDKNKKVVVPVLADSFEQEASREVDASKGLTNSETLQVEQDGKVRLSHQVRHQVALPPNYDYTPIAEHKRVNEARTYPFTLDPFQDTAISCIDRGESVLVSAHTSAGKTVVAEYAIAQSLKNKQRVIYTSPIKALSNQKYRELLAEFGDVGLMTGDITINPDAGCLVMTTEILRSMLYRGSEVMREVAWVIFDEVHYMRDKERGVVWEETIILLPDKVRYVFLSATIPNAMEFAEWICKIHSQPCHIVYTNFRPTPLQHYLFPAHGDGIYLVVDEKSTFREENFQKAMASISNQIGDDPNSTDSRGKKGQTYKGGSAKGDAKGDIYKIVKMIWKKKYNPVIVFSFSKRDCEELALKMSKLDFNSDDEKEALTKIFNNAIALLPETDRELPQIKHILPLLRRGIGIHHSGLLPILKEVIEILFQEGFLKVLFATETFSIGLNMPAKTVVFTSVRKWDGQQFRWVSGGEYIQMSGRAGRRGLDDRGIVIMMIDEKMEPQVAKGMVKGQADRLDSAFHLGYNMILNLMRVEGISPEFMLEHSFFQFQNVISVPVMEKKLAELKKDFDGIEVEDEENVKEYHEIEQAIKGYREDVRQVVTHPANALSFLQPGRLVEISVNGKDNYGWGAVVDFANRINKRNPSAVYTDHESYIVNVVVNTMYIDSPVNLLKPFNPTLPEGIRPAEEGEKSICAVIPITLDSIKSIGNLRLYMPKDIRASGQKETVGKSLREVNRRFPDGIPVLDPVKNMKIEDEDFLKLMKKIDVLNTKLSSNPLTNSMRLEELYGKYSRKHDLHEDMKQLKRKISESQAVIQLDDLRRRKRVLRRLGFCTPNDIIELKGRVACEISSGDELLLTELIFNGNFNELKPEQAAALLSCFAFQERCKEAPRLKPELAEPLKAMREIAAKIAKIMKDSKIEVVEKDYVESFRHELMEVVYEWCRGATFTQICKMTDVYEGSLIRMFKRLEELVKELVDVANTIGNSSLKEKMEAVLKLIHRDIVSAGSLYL
The data set is described as above. As to conditions: protein: recombinant; tags: His (His60 Ni purification); label: 5' 32P on R4 (top strand); 16 bp duplex, 3' overhang 6 nt on R1.

B1: R1-4 RNA duplex (R4 top / R1 bottom) (dsRNA)
RNA 1: AGCACCGUAAAGACGC
RNA 2: GCGUCUUUACGGUGCUAGCUUA
On to B1, for which the binding signal with Mtr4p-P731S was ~50 % of wild-type complex; in the data set with Mtr4p-K700N, < 50 % of wild-type complex.
